{"source": "patent US20220332804A1", "about": "(CSL INNOVATION, published 2022)", "experiment_in_all_cases": "SPR, KD relative to WT C2;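 further: biacore SPR at 37 °C, anti-C2 mAbs captured via immobilised goat anti-human IgG, C2 alanine or serine surface mutants as analytes, 1:1 model fitted, double-referenced sensograms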", "key": {"human C2 D454A": {"biological_target": "T1, human C2 D454A (human, UniProt P06681 21-752)", "T1 sequence": "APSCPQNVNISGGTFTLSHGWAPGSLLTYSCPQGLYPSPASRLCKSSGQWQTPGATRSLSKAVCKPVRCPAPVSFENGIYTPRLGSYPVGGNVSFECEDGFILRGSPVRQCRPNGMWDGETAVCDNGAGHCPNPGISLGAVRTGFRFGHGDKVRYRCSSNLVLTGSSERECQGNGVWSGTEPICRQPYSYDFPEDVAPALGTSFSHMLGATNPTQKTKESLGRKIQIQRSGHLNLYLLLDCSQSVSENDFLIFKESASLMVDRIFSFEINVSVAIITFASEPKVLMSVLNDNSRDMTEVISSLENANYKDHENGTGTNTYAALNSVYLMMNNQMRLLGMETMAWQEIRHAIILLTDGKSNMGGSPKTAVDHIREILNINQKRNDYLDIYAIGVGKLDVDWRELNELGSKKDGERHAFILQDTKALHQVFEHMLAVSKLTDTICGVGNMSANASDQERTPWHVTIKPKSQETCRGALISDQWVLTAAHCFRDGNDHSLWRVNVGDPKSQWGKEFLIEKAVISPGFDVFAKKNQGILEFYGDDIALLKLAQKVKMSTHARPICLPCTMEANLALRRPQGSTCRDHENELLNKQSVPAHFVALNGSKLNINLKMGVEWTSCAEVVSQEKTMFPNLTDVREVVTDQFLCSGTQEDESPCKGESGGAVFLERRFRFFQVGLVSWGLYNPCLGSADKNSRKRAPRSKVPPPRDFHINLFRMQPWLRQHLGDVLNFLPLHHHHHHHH", "protocol": "(§1) Surface plasmon resonance (SPR, Biacore) was used for all binding affinity analyses. In brief, goat anti-human IgG was directly immobilised onto the carboxymethyl dextran surface of CM5 sensorchips to approximately 12,000 RU using standard NHS/EDC chemistry at pH 5. The immobilised antibody surface was pre-conditioned with ten injections of polyclonal human IgG (Privigen 60 s) prepared at 1 μg/mL. Ligands (anti-C2 mAbs) were captured at the beginning of each cycle as described below. An adjacent spot or flow cell in which only Polyclonal IgG was capture was used as a reference surface. The goat anti-human IgG Fc antibody surface was regenerate in 100 mM H3PO4, injected for 45 seconds at the end of each cycle. Experiments were performed at 37° C. and the flow rate of each experiment was kept constant at 30 μL/min.\n(§2) Sensogram data was double-referenced against a reference anti-IgG surface (i.e. minus anti-C2 mAb) and blank buffer injections obtained within each experiment. The binding data was fit to 1:1 (kinetic or steady-state) model using local Rmax and null refraction index (RI=0) when appropriate. Buffers and solutions were filtered (0.22 μm) prior to use."}, "human C2 T317A": {"biological_target": "T2, human C2 T317A (human, UniProt P06681 21-752)", "T2 sequence": "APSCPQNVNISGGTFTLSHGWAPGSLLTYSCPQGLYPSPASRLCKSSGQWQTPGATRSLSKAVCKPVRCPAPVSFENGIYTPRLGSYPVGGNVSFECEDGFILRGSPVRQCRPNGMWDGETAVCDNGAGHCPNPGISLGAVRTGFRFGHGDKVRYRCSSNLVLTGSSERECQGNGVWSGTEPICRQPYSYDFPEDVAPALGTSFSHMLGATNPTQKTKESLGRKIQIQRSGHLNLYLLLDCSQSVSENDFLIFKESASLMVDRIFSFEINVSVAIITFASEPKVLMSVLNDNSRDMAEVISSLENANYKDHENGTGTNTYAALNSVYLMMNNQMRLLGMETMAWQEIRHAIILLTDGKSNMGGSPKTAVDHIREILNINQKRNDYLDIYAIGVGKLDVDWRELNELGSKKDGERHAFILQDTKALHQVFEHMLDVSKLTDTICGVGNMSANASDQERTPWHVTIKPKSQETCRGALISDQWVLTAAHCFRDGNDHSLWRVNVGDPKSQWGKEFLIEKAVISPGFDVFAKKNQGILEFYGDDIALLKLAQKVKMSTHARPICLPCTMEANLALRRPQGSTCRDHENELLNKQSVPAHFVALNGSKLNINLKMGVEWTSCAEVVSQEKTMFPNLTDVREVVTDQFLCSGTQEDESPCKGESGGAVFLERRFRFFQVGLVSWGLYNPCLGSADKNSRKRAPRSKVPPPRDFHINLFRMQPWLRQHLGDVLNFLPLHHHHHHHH", "protocol": "as §1, §2"}, "human C2 L701A": {"biological_target": "T3, human C2 L701A (human, UniProt P06681 21-752)", "T3 sequence": "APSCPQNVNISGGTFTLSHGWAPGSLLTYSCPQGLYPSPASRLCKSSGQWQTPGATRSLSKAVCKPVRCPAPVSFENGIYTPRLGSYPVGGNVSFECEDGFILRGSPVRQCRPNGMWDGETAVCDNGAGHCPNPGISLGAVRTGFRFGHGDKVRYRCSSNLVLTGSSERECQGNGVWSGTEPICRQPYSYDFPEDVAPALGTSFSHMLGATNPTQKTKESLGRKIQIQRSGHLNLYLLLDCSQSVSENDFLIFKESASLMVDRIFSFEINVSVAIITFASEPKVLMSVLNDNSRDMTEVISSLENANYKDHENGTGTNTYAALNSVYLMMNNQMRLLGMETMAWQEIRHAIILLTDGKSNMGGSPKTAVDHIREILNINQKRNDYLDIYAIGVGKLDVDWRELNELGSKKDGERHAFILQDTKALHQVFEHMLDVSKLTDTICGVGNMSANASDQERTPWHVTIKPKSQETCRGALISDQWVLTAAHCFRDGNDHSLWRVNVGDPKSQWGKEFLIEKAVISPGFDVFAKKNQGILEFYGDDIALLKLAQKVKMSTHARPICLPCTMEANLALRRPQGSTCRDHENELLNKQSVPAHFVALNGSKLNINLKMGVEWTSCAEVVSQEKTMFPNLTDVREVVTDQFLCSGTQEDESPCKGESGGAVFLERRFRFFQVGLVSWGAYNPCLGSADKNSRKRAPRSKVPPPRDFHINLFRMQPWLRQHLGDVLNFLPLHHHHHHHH", "protocol": "as §1, §2"}, "human C2 S720A": {"biological_target": "T4, human C2 S720A (human, UniProt P06681 21-752)", "T4 sequence": "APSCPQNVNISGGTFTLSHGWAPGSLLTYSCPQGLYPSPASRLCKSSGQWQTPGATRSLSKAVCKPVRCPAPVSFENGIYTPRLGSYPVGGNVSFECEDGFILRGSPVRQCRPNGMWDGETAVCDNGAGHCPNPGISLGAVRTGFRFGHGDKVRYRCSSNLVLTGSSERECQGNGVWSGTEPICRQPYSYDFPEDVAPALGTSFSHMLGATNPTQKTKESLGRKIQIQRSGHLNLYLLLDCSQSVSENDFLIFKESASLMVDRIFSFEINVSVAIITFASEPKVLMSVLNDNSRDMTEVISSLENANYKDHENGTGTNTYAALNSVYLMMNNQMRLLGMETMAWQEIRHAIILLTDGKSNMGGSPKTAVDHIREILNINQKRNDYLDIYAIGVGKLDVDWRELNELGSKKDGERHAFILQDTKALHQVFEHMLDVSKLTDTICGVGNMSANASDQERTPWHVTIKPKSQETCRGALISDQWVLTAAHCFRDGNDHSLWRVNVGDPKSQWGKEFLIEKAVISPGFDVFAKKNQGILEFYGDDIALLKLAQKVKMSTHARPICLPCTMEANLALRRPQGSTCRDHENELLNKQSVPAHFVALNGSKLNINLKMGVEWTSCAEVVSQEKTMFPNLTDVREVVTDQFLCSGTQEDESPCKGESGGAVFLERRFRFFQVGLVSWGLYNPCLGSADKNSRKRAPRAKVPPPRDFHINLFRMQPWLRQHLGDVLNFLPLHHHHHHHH", "protocol": "as §1, §2"}}, "data": [{"binder": "RF16-226 (antibody, human IgG4 S228P, lambda, pH-dependent anti-C2 antibody from a phage display library; also called WT) heavy: not shown light: SYELTQPPSVSVSPGQTARITCSGDALTSKYVAWYQQKSGLAPLLVIYEDTRRPSGIPAKFSGSSSGSVATLTISGAHGDDEADYYCYSTDASGHQRVFGGGTKLTVLSQPKAAPSVTLFPPSSEELQANKATLVCLISDFYPGAVTVAWKADGSPVKAGVETTKPSKQSNNKYAASSYLSLTPEQWKSHRSYSCQVTHEGSTVEKTVAPTECS", "values": [{"measurement": "Fold diff", "setting": "human C2 D454A", "result": 25, "unit": "fold"}, {"measurement": "Fold diff", "setting": "human C2 T317A", "result": 1, "unit": "fold"}, {"measurement": "Fold diff", "setting": "human C2 L701A", "result": 16, "unit": "fold"}, {"measurement": "Fold diff", "setting": "human C2 S720A", "result": 1, "unit": "fold"}]}]}
